The values below come from patent US20220064276A1 (SCHOLAR ROCK, published 2022).

Changes are numbered by the printed parent chain. Where two headings read alike, the source gives them in different places.

Experiment [1] addresses T1, mouse LTBP1-proTGFβ1 complex (mouse, UniProt Q8CG19 339-1712; P04202 30-390). Description: cell-based or functional assay.
Experiment [2] has as its target T2, LTBP-proTGFβ1: transfected human proTGFβ1 presented by endogenous LTBP1/3 of LN229 cells (human). Briefly: cell-based or functional assay.
In experiment [3] the target is T1, mouse LTBP1-proTGFβ1 complex. Description: Octet BLI, IgG captured. Here is the method:
(§1) Binding affinities of the optimized antibodies were measured by Octet against human LTBP1-proTGFβ1, human LTBP3-proTGFβ1, mouse LTBP1-proTGFβ1, mouse LTBP3-proTGFβ1, and GARP-proTGFβ1 complexes, essentially as described in Example 6. […] The antigens were allowed to associate for 3 minutes followed by a 5-minute dissociation. Kinetics buffer (ForteBio®) was used throughout the experiment, and KD was determined using a 1:1 fitting model for each antibody antigen pair.
(In general: In BLI a coated tip is dipped into the sample, and binding shifts an interference pattern.)

For experiment [4], the target named is T3, human LTBP1-proTGFβ1 complex (human, UniProt Q14766 347-1721; P01137 30-390).
T3 construct: Large latent complex: one presenting molecule disulfide-linked to a proTGFβ1 dimer; also called Hu LTBP1-proTGFβ1; huLTBP1 proTGFβ1
Briefly: Octet BLI, IgG captured. The procedure: as §1

In experiment [5] the target is T4, human LTBP3-proTGFβ1 complex (human, UniProt Q9NS15 44-1303; P01137 30-390, limits assumed).
T4 construct: Exemplary entries; also called Hu LTBP3-proTGFβ1; huLTBP3 proTGFb1
Briefly: Octet BLI, IgG captured. The procedure: as §1

In experiment [6] the target is T5, mouse LTBP3-proTGFβ1 complex (mouse, UniProt Q61810 41-1245; P04202 30-390, limits assumed).
T5 construct: Exemplary entries; also called Mo LTBP3-proTGFβ1; Murine LTBP3 proTGFb1
Description: Octet BLI, IgG captured. Here is the method: as §1

Experiment [7] has as its target T6, human GARP-proTGFβ1 complex (human, UniProt Q14392 18-627; P01137 30-390, limits assumed).
T6 construct: Exemplary entries; also called Hu GARP-proTGFβ1; huGARP proTGFb1
Briefly: Octet (bio-layer interferometry), response at 200 nM antigen; 0.1 nm cutoff designates meaningful binding. Here is the method:
This experiment was performed at 200, 100, 50, and 25 nM human GARP proTGFb1 and human LTBP1 proTGFbl. […] Surface plasmon resonance (SPR)-based assays

Experiment [8] addresses T1, mouse LTBP1-proTGFβ1 complex. Briefly: cell-based or functional assay. The source holds these as a separate data set.
The target in experiment [9] is T2, LTBP-proTGFβ1: transfected human …. Briefly: cell-based or functional assay. The source holds these as a separate data set.
Experiment [10] addresses T1, mouse LTBP1-proTGFβ1 complex. Description: cell-based or functional assay. The source holds these as a separate data set.
In experiment [11] the target is T2, LTBP-proTGFβ1: transfected human …. Briefly: cell-based or functional assay. The source holds these as a separate data set.
Experiment [12] has as its target T1, mouse LTBP1-proTGFβ1 complex. Description: Octet BLI, IgG captured. The procedure: (§2) LTBP complex-specific antibodies from the first round of affinity maturation/optimization (SR-AB14, SR-AB16, SR-AB17, SR-AB18, SR-AB19) were selected for a second round of affinity maturation/optimization (i.e., CDR-H3 mutagenesis as described herein) and particular progeny antibodies (SR-AB20, SR-AB21, SR-AB22, SR-AB23, SR-AB24, SR-AB25, SR-AB26, SR-AB27, SR-AB28, and SR-AB29) were assessed for their ability to bind various proTGFβ1 constructs. Binding affinities of the optimized antibodies were measured by Octet against human LTBP1-proTGFβ1, human LTBP3-proTGFbl, mouse LTBP1-proTGFβ1, mouse LTBP3-proTGFbl, and GARP-proTGFβ1 complexes, essentially as described in Example 6. […] The antigens were allowed to associate for 3 minutes followed by a 5-minute dissociation. Kinetics buffer (ForteBio®) was used throughout the experiment, and KD was determined using a 1:1 fitting model for each antibody antigen pair.
The source holds these as a separate data set.

Experiment [13] addresses T3, human LTBP1-proTGFβ1 complex. Briefly: Octet BLI, IgG captured. The procedure: as §2
The source holds these as a separate data set.

For experiment [14], the target named is T5, mouse LTBP3-proTGFβ1 complex. Briefly: Octet BLI, IgG captured. The procedure: as §2
This is another data set of the same source.

Experiment [15] concerns the target T3, human LTBP1-proTGFβ1 complex. Briefly: SPR Biacore 8K, Fab over captured antigen. Here is the method: A Biacore 8K system was employed to determine the monovalent binding affinity and the kinetic parameters for antigen binding of test antibodies. Association and dissociation kinetics of Fab fragments SR-AB42-HuFab, SR-AB63-HuFab and SR-AB43-HuFab to antigen complexes were measured, and resulting ka, kd and KD are provided below. Briefly, the binding kinetics were evaluated by surface plasmon resonance using Biacore 8K (GE Healthcare). Biotinylated capture antigens were immobilized to the chip (10 nM, ˜200 RU loading). A Biotin CAPture sensor chip was used to capture the biotinylated antigens. […] 0 nM was used as a reference. […] 0 nM was used as a reference. Multi-cycle kinetics was employed where each analyte concentration was injected in a separate cycle and the sensor chip surface was regenerated after each cycle. A11 the assays were carried out in freshly prepared 1× HBS-EP+ buffer (10 mM HEPES, 150 mM NaCl, 3 mM EDTA, 0.05% Tween20, pH 7.4). Data were fit globally to a 1:1 binding model to obtain the kinetic parameters. The sensorgram for 0 nM analyte concentration was used as reference.
On the technique in general: SPR reads the build-up and loss of mass on a sensor chip optically.

Experiment [16] has as its target T7, mouse GARP-proTGFβ1 complex (mouse, UniProt G3XA59 18-628; P04202 30-390, limits assumed).
T7 construct: Exemplary entries; also called MuGARP-ProTGFb1; Mu GARP-ProTGFβ1
Description: SPR Biacore 8K, Fab over captured antigen, Rmax fixed. Here is the method: (§3) These experiments were performed using the Biacore 8K using the method “multi-cycle kinetics/affinity using Biotin CAPture kit.”
(§4) Data collection rate was set to 10 Hz and the Biotin CAPture step was performed for 300 seconds with a flow rate of 2 μL/minute. The Biotin CAPture reagent was used after a 1:5 dilution in 1× Biacore running buffer. Biotinylated ligands (the various complexes of TGFβ1) were utilized at a concentration of 10 nM and were immobilized to the sensor chip for 180 seconds with a flow rate of 10 μL/minute. […] Analyte contact time was 120 seconds and the dissociation time was 900 seconds. The regeneration cycle utilized was 120 seconds with a flow rate of 10 μL/minute.
(§5) The evaluation method used was “multi-cycle affinity using capture” and a 1:1 binding model was used. […] Global fits were utilized for every KD determination.

Experiment [17] addresses T6, human GARP-proTGFβ1 complex. The description is as above. Here is the method: as §3, §4, §5
Experiment [18] deals with T1, mouse LTBP1-proTGFβ1 complex. The experiment is described as above. The procedure: as §3, §4, §5
Experiment [19] addresses T3, human LTBP1-proTGFβ1 complex. Described as above. The procedure:
as §3, §4, §5

Experiment [20] has as its target T8, human LRRC33-proTGFβ1 complex (human, UniProt Q86YC3 19-650; P01137 30-390, limits assumed).
T8 construct: Exemplary entries; also called huLRRC33 proTGFb1; HuLRRC33-ProTGFb1
Described as above. Here is the method: as §3, §4, §5

The target in experiment [21] is T4, human LTBP3-proTGFβ1 complex. Described as above. The procedure: as §3, §4, §5
The target of experiment [22] is T9, mouse LRRC33-proTGFβ1 complex (mouse, UniProt Q8BMT4 20-651, limits assumed).
T9 construct: also called MuLRRC33-ProTGFb1; Mu LRRC33-ProTGFβ1
The experiment is described as above. Here is the method:
as §3, §4, §5

Experiment [23] has as its target T5, mouse LTBP3-proTGFβ1 complex. Described as above. Here is the method:
as §3, §4, §5

T2 sequence (P01137 30-390): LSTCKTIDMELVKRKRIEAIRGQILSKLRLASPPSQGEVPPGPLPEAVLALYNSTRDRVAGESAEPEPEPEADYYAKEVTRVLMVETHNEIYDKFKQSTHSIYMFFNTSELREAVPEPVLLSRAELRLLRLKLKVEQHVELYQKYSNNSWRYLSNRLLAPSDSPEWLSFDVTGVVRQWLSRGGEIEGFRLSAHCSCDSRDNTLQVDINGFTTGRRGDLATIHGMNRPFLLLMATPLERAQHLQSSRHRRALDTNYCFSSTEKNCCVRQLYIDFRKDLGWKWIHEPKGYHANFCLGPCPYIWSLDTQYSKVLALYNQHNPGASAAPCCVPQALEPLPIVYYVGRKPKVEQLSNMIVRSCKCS
T5 sequence (Q61810 other isoform, or with tags, fused parts or gaps limits assumed, chain 1 of 2): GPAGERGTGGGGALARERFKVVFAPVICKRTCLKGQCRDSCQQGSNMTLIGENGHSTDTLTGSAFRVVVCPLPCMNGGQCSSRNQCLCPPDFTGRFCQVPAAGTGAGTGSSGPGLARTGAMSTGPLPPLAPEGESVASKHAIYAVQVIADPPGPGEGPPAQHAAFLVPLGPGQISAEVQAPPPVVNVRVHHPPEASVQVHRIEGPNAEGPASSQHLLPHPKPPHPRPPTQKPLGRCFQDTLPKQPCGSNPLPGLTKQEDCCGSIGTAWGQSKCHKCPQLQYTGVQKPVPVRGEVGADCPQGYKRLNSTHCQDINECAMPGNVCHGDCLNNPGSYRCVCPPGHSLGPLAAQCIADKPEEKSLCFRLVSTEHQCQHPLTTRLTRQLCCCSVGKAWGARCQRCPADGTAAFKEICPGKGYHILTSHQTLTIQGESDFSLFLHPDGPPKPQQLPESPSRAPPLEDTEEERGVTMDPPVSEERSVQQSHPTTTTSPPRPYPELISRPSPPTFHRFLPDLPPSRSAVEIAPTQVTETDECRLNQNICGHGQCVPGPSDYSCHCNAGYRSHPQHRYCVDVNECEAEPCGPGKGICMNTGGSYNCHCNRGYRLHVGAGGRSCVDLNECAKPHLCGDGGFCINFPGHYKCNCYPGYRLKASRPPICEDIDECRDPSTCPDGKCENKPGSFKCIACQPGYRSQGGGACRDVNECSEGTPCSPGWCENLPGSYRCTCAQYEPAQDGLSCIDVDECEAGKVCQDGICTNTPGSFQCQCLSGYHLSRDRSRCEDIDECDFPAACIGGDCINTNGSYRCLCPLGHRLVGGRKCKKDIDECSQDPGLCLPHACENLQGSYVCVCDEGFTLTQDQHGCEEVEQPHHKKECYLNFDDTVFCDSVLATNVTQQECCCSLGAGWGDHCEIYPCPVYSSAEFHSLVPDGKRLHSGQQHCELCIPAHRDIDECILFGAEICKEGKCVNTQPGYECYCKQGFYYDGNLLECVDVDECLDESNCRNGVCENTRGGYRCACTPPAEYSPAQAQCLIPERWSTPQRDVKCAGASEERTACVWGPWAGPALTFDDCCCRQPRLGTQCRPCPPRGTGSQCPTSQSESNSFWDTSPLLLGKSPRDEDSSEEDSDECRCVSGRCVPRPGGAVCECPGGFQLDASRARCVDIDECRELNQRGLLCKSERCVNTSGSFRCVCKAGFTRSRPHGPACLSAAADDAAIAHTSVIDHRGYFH
T5 sequence (P04202 30-390 limits assumed, chain 2 of 2): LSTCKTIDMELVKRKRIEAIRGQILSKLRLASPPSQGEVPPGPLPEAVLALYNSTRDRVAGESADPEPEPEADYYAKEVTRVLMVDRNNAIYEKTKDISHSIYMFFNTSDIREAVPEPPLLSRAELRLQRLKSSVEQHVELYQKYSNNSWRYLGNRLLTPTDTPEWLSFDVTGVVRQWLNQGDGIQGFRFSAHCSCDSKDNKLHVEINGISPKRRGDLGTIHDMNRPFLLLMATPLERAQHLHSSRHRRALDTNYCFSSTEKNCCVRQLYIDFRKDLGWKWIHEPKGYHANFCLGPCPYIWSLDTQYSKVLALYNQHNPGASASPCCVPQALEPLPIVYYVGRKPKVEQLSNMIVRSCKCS
T4 sequence (Q9NS15 44-1303 limits assumed, chain 1 of 2): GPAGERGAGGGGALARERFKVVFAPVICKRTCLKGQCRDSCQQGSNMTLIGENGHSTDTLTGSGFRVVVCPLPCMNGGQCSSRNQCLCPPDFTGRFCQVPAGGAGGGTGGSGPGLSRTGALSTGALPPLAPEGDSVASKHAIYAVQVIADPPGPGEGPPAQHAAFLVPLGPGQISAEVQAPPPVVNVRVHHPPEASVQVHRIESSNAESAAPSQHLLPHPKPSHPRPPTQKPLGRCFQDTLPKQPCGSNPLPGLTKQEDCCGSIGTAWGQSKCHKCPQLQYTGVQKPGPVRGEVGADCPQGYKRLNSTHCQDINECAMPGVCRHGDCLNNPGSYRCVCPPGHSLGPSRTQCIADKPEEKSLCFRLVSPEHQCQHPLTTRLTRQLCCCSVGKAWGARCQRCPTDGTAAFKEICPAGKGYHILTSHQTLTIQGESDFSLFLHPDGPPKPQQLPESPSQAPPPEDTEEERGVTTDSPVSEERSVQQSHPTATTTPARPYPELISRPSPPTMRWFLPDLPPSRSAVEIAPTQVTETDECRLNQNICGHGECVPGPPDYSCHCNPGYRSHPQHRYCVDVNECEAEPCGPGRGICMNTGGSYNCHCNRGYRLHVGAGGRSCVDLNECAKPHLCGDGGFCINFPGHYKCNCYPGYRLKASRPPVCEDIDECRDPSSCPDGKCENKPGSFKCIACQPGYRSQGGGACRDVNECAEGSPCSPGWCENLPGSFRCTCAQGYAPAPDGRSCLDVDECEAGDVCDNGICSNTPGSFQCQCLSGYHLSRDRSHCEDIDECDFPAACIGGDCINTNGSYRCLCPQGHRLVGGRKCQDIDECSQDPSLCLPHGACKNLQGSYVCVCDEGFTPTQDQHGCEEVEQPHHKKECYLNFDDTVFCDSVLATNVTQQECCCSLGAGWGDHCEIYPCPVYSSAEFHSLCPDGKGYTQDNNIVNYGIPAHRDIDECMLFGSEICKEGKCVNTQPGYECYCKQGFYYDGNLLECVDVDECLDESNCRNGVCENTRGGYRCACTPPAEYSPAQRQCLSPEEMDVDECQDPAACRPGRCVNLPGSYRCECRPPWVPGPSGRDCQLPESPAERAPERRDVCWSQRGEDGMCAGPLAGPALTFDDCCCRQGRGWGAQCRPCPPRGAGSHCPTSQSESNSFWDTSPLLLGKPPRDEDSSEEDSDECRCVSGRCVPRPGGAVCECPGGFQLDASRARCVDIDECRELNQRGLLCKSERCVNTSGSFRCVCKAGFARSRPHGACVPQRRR
T4 sequence (P01137 30-390 limits assumed, chain 2 of 2): as the sequence (P01137 30-390) above
T3 sequence (Q14766 347-1721 limits assumed, chain 1 of 2): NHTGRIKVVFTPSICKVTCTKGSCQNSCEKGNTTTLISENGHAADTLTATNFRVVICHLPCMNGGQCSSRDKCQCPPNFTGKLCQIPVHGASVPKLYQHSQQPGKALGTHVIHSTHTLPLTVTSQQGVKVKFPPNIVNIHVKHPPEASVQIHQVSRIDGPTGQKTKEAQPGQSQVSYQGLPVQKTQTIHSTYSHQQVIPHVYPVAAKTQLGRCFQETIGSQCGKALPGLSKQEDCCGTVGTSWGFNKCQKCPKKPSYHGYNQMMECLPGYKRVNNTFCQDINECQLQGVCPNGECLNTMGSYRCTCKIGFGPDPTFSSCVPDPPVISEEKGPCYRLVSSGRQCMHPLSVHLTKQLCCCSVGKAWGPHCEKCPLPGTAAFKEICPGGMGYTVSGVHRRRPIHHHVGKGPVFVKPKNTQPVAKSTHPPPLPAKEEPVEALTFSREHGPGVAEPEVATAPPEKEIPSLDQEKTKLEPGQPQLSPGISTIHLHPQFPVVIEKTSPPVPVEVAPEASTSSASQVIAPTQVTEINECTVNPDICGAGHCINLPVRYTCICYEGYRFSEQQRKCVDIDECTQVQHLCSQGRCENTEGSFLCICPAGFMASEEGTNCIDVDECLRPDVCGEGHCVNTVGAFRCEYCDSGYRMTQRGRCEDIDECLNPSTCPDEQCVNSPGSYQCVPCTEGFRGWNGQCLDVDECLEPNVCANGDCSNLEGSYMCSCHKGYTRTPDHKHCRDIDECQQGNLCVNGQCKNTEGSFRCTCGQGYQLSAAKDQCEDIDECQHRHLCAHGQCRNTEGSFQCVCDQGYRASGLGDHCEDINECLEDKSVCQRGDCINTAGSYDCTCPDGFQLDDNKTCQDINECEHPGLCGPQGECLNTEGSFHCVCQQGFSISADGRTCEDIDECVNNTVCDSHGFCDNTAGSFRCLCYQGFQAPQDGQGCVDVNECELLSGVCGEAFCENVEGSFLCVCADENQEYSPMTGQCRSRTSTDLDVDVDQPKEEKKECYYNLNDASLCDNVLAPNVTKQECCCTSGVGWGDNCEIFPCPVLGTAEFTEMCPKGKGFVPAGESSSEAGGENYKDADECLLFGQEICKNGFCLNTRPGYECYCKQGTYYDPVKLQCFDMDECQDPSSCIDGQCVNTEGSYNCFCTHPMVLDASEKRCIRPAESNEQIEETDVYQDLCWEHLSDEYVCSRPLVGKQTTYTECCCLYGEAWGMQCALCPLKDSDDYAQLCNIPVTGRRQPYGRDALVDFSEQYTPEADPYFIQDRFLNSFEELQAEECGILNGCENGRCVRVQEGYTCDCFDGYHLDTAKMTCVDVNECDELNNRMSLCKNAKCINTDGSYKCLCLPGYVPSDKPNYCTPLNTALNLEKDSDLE
T3 sequence (P01137 30-390 limits assumed, chain 2 of 2): as the sequence (P01137 30-390) above

B1: SR-AB62 (antibody, IgG1, V domains shown)
VH: QLQLQESGPGLAKPSETLSLTCTVSGGSIRSSSYYWGWIRQPPGKGLEWIGSISYSATTYYNPSLKSRVTISVDTSKNQFSLKLSSVTAADTAVYYCASDPSYDSAAGMDVWGQGTTVTVSS
VL: DIQMTQSPSSLSASVGDRVTITCRASKVISSYLNWYQQKPGKAPKLLIYYASSLQSGVPSRFSGSGSGTDFTLTISSLQPEDFATYYCQQSNDWPFTFGGGTKVEIK
notes: Cycle 3, lineage SR-AB24
Usually Kd stands for the free concentration of one partner at which half of the binding sites on the other are occupied at equilibrium, for simple one-to-one binding. A high value points to lower affinity. By koff is commonly meant a measure of how fast the partners let go of each other. Lower therefore signals a long-lived complex. For orientation: kon means a measure of how fast the partners come together. For the molecule B1, in experiment [1], the “IC50, mLTBP1 assay (CAGA12 luciferase)” value was determined as 0.386 nM. Moreover, the “IC50, endogenous hLTBP assay (CAGA12 luciferase)” value (shortened to “IC50, endogenous hLTBP assay”) in experiment [2] turned out to be 8.68 nM. In addition, the Kd amounted to 0.609 nM in experiment [3], 0.486 nM in experiment [4], 0.368 nM in [5] and 3.37 nM in [6]. Also, the koff amounted to 6.82e-05 s⁻¹ in [4] and 7.47e-05 s⁻¹ in experiment [5]. Moreover, the values for the kon in experiment [4] and in experiment [5] were 140000 M⁻¹ s⁻¹ and 203000 M⁻¹ s⁻¹, respectively. Moreover, in [7], the binding result is “no binding (tested: 200 nM)”.

B2: SR-AB64 (antibody, IgG1, V domains shown)
VH: B1 VH with A12V, S99G, A106I, D110Q
VL: B1 VL with K27Q, V28S, S31Y, Y50S, L54R, S91G, N92F, W94F, F96L
notes: Cycle 3, lineage SR-AB26
Take B2: the equilibrium dissociation constant (Kd) in [3] came to 1.03 nM; in experiment [4], 0.467 nM; in experiment [5], 0.471 nM; in experiment [6] it was 2.85 nM. The molecule also displayed a koff in experiment [5] of 9.18e-05 s⁻¹. The molecule further gave an on-rate constant (kon) in experiment [5] of 195000 M⁻¹ s⁻¹. Besides, the “IC50, mLTBP1 assay (CAGA12 luciferase)” value in [8] turned out to be 0.268 nM. Besides, the “IC50, endogenous hLTBP assay” value in [9] came out at 3.12 nM. In addition, the binding result in [7] is “no binding (tested: 200 nM)”.

B3: SR-AB22 (antibody, IgG1, V domains shown)
VH: QVQLVESGGGVVQPGRSLRLSCAASGFTFRSYVMHWVRQAPGKGLEWVAVISHEGSLKYYADSVKGRFTISRDNSKNTLYLQMNSLRAEDTAVYYCAVPRIAARRGGFGYWGQGTLVTVSS
VL: NFMLTQPHSVSESPGKTVTISCTRSSGNIDNNYVQWYQQRPGSSPTTVIYEDNQRPSGVPDRFSGSIDSSSNSASLTISGLKTEDEADYYCQSYDSDNQGVVFGGGTKLTVL
notes: Cycle 2, lineage SR-AB14
Take B3: the “IC50, mLTBP1 assay (CAGA12 luciferase)” value in experiment [10] was 1.39 nM. For the same molecule, the “IC50, endogenous hLTBP assay” value in experiment [11] came out at 4.62 nM. The Kd in experiment [12] came out at 2.43 nM; in [13], 1.88 nM; in experiment [14], 1.56 nM.

B4: SR-AB47-HuFab (Fab, V domains shown)
VH: B3 VH with L57G, V98R, Y110S
VL: B3 VL with N31Y, Q54V, S96Y, G100A
notes: Human Fab; also called SR-AB47 Fab
As for B4, the Kd in experiment [15] was 0.074 nM; in experiment [16] it was 1.95 nM; in [17], 6.5 nM; in experiment [18] it was 0.198 nM; in experiment [19] it was 0.217 nM; in [20] it was 6.66 nM. Also, the Kd was determined as 0.33 nM in [21], 9.16 nM in experiment [22] and 0.4 nM in experiment [23]. Moreover, in experiment [15], the off-rate (koff) was found to be 0.000136 s⁻¹. This molecule had a kon in experiment [15] of 1.84e+06 M⁻¹ s⁻¹.

B5: SR-AB49-HuFab (Fab, V domains shown)
VH: B3 VH with L57G, V98R, Y110S
VL: B3 VL with N31Y, Q54V, S93G, S96W, N98T
notes: Human Fab; also called SR-AB49 Fab
Regarding B5, the Kd worked out at 0.17 nM in [15]; 2.82 nM in experiment [16]; 6.55 nM in experiment [17]; 0.379 nM in [18]; 0.319 nM in experiment [19]; 7.7 nM in experiment [20]. Also, the values for the Kd in experiment [21], in experiment [22] and in experiment [23] were 0.58 nM, 6.95 nM and 0.65 nM, respectively. Moreover, in [15], the koff turned out to be 0.000138 s⁻¹. This molecule showed a kon in experiment [15] of 809000 M⁻¹ s⁻¹.
